In patent publication US10124035B2, “DISC-1 pathway activators in the control of neurogenesis” (Massachusetts Institute of Technology, priority 2008, dated 2018):
“Also recorded” adds a separate entry of the source.

B1: DISC1 fragment 1-220: GST-tagged mouse DISC1 protein fragment, amino acids 1-220 (protein)
chain: MQGGGPRGAPIHSPSHGADSGHGLPPAVAPQRRRLTRRPGYMRSTAGSGIGFLSPAVGMPHPSSAGLTGQQSQHSQSKAGQCGLDPGSHCQASLVGKPFLKSSLVPAVASEGHLHPAQRSMRKRPVHFAVHSKNDSRQSERLTGSFKPGDSGFWQELLSSDSFKSLAPSLDAPWNKGSRGLKTVKPLASPALNGPADIASLPGFQDTFTSSFSFIQLSLG
modifications: left off: a dimerising Fc or GST
B2: Wnt3a: Recombinant Wnt3a protein obtained from Chemicon (protein, UniProt P56704 19-352, looked up)
Protein Wnt-3a: SYPIWWSLAVGPQYSSLGSQPILCASIPGLVPKQLRFCRNYVEIMPSVAEGIKIGIQECQHQFRGRRWNCTTVHDSLAIFGPVLDKATRESAFVHAIASAGVAFAVTRSCAEGTAAICGCSSRHQGSPGKGWKWGGCSEDIEFGGMVSREFADARENRPDARSAMNRHNNEAGRQAIASHMHLKCKCHGLSGSCEVKTCWWSQPDFRAIGDFLKDKYDSASEMVVEKHRESRGWVETLRPRYTYFKVPTERDLVYYEASPNFCEPNPETGSFGTRDRTCNVSSHGIDGCDLLCCGRGHNARAERRREKCRCVFHWCCYVSCQECTRVYDVHTCK
B3: DISC1 fragment 356-595: GST-tagged mouse DISC1 protein fragment, amino acids 356-595 (protein, UniProt Q811T9 356-595, looked up, fragment)
chain: LKLQKCQEKVVEDGDYDTAETLRQRLEELEQEKGRLSWALPSQQPALRSFLGYLAAQIQVALHGATQRAGSDDPEAPLEGQLRTTAQDSLPASITRRDWLIREKQRLQKEIEALQARMSALEAKEKRLSQELEEQEVLLRWPGCDLMALVAQMSPGQLQEVSKALGETLTSANQAPFQVEPPETLRSLRERTKSLNLAVRELTAQVCSGEKLCSSLRRRLSDLDTRLPALLEAKMLALSG
modifications: GST tag

Columns and labels:
[1] = target: T1, GSK3β (Homo sapiens, UniProt P49841); assay: GSK3β in vitro kinase assay (β-catenin/axin phosphorylation, Y216 autophosphorylation); type: biochemical; conditions: for inhibition of GSK3β activity by DISC1 fragments: no single concentration, dose dependence, rank
T1 construct: GST; purchased Active Motif (Carlsbad, Calif.)
Excerpt: • Mice. Swiss Webster pregnant female mice were purchased from Taconic (Hudson, N.Y.). • Cell Culture. AHPs were kindly provided by Dr. Gage (Lie, D. C. et al. Wnt signaling to regulates adult hippocampal neurogenesis. Nature 437, 1370-5 (2005)) and cultured under conditions described previously (Palmer, T. D., Takahashi, J. & Gage, F. H. The adult rat hippocampus contains primordial neural stem cells. Mol Cell Neurosci 8, 389-404 (1997)). Primary neural progenitors were isolated from E14 mouse embryos and cultured as described previously (Sanada, K. & Tsai, L. H. G protein betagamma subunits and AGS3 control spindle orientation and asymmetric cell fate of cerebral cortical progenitors. Cell 122, 119-31 (2005)). N2a and 293T cells were cultured in DMEM medium containing 10% FBS, L-glutamine, and penicillin/streptomycin. Wnt3a expressing L cells and untransfected L cells were obtained from ATCC (Manassas, Va.). Wnt3a conditional medium was produced according to the ATCC protocol. To induce AHP differentiation, FGF2 was removed from the culture medium and 1 μM retinoic acid/1% FBS was added to the medium for 4 days. • Reagents. Recombinant Wnt3a protein was obtained from Chemicon (Rosemont, Ill.). FGF2 was obtained from PeproTech (Rocky Hill, N.J.). Recombinant GST-GSK3β was obtained from Active Motif (Carlsbad, Calif.). Recombinant GST-β-catenin and GST-axin were obtained from Millipore (Billerica, Mass.). The GSK313 inhibitor, SB-216763, AR-A104418 and His-GSK3β, were obtained from Sigma-Aldrich (Sigma-Aldrich, St. Louis, Mo.). L803-MTS was obtained from Calbiochem (San Diego, Calif.). GST-AKT1 was obtained from Cell Signaling (Beverly, Mass.). GST-CASK-1 (CASK fragment from 316-415aa), GST-CASK-2 (CASK fragment from 777-974aa), and GST-p25 proteins were kindly provided by Dr. B. A. Samuels. Mouse DISC1 peptidel (40-78aa: GYMRSTAGSG IGFLSPAVGMPHPSSAG LTGQQSQHSQS; SEQ ID NO: 1) and Mouse DISC1 peptide 2 (195-238aa, […] GERGEAEGCLPSREAE; SEQ ID NO: 2) were synthesized by Chi Scientific (Maynard, Mass.). • Antibodies. The primary antibodies used in this study were the following: rabbit anti-DISC1 C-terminal antibody, mouse and rabbit anti-GFP antibodies (Invitrogen, Carlsbad, Calif.); affinity purified rabbit anti-DISC1 antibody (Novus, Littleton, Colo.) for immunohistochemistry; mouse anti-FLAG and mouse anti-Actin antibody; mouse anti-GSK3β antibody, mouse anti-β-catenin antibody, mouse anti-pY216 GSK3β antibody, and mouse anti-nestin antibody (BD Biosciences, San Diego, Calif.); rabbit anti-[…] β-catenin antibody, rabbit anti-pS9 GSK3β antibody, and mouse anti-cyclin to D1 antibody (Cell Signaling); mouse anti-Dv12 antibody, mouse anti-HA antibody, mouse anti-GST antibody, mouse anti-ubiquitin antibody, and rabbit anti-β-catenin antibody (Santa Cruz, Santa Cruz, Calif.); mouse Tuj-1 antibody (BABCO, Harrisburg, Pa.); mouse anti-BrdU antibody (DakoCytomation, Glostrup, Denmark); guinea pig anti-doublecortin antibody (Chemicon, Rosemont, Ill.); chicken anti-GFP antibody (Ayes Labs, Tigard, Oreg.); rabbit anti-pS10 Histone H3 antibody (Upstate, Lake Placid, N.Y.). • Constructs. The sequences for shRNAs targeting DISC1 are as follows: control shRNA: 5′-CGGCTGAAACAAGAGTTGG-3′ (SEQ ID NO:3); DISC1 shRNA-1: 5′-GGCAAACACTGTGA AGT GC-3′ (SEQ ID NO:4); DISC1 shRNA-2: 5′-[…]-3′ (SEQ ID NO:5)(Kamiya A. et al. A schizophrenia-associated mutation of DISC1 perturbs cerebral cortex development. Nat. Cell Biol 7, 1167-78 (2005)). DISC1 shRNA-1 recognizes both rat and mouse DISC1. […]

[2] = target: T2, His-GSK3β (Homo sapiens, UniProt P49841); assay: In vitro association (GST pull-down) with purified His-GSK3β; type: binding; conditions: GST-tagged DISC1 fragments, in vitro association assay
T2 construct: purchased Sigma-Aldrich (St. Louis, Mo.)
Excerpt: (§1) • Mice. Swiss Webster pregnant female mice were purchased from Taconic (Hudson, N.Y.). • Cell Culture. AHPs were kindly provided by Dr. Gage (Lie, D. C. et al. Wnt signaling to regulates adult hippocampal neurogenesis. Nature 437, 1370-5 (2005)) and cultured under conditions described previously (Palmer, T. D., Takahashi, J. & Gage, F. H. The adult rat hippocampus contains primordial neural stem cells. Mol Cell Neurosci 8, 389-404 (1997)). Primary neural progenitors were isolated from E14 mouse embryos and cultured as described previously (Sanada, K. & Tsai, L. H. G protein betagamma subunits and AGS3 control spindle orientation and asymmetric cell fate of cerebral cortical progenitors. Cell 122, 119-31 (2005)). N2a and 293T cells were cultured in DMEM medium containing 10% FBS, L-glutamine, and penicillin/streptomycin. Wnt3a expressing L cells and untransfected L cells were obtained from ATCC (Manassas, Va.). Wnt3a conditional medium was produced according to the ATCC protocol. To induce AHP differentiation, FGF2 was removed from the culture medium and 1 μM retinoic acid/1% FBS was added to the medium for 4 days. • Reagents. Recombinant Wnt3a protein was obtained from Chemicon (Rosemont, Ill.). FGF2 was obtained from PeproTech (Rocky Hill, N.J.). Recombinant GST-GSK3β was obtained from Active Motif (Carlsbad, Calif.). […]

[3] = test system: adult hippocampal progenitor (AHP) cells; assay: AHP cell proliferation, BrdU labeling and mitotic index; type: cell-based; conditions: Wnt3a 200 ng/ml
Excerpt: as §1

T1 sequence (P49841 whole entry, the tested form may be a part): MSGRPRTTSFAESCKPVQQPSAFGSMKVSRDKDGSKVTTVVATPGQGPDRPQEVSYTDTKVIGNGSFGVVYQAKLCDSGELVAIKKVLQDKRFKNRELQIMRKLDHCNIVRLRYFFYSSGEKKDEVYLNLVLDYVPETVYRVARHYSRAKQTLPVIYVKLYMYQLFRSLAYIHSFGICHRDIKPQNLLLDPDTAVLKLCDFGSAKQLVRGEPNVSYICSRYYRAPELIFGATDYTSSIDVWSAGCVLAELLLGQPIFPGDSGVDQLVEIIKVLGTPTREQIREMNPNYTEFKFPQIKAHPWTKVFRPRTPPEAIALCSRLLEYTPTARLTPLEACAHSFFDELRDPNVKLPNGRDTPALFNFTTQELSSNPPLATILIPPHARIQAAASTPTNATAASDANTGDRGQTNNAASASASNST
T2 sequence (P49841 whole entry, the tested form may be a part): as above

Molecule | inhibition of β-catenin, axin and GSK3β phosphorylation ([1]; GST fusion proteins at 0.5 μM) | inhibition of GSK3β Y216 phosphorylation ([1]; at 0.1 μM) | inhibition of GSK3β Y216 phosphorylation ([1]; at 1 μM) | inhibition of GSK3β activity by DISC1 fragments [1] | interaction with purified His-GSK3β [2] | proliferation of AHPs [3] | inhibition of GSK3β autophosphorylation (Y216) ([1]; GST-DISC1 fragments at 2 μM)
B1 | potently inhibited β-catenin, axin and GSK3β phosphorylation | no inhibition | plateaued | able to inhibit GSK3 activity; also recorded: most potent in inhibiting GSK3 activity; also recorded: most potent inhibitory activity on GSK3β; also recorded: dose-dependent | strong interactions; also recorded: directly associate with purified GSK3β; also recorded: interacts directly |  | 
B2 |  |  |  |  |  | significantly stimulated proliferation of AHPs | 
B3 |  |  |  | able to inhibit GSK3 activity | strong interactions; also recorded: directly associate with purified GSK3β; also recorded: interacts directly |  | started to inhibit GSK3β autophosphorylation
